Reference: paper PMC3553976

Key:
U2AF65 RRM123;SF1 2-320 = U2AF65 RRM123;SF1 2-320 (Homo sapiens;Homo sapiens?, UniProt P26368;Q15637 147-475;2-320, |); experiment: EMSA
U2AF65 RRM123;SF1 1-260 [1] = molecular target: T1, U2AF65 RRM123;SF1 1-260 (Homo sapiens;Homo sapiens, UniProt P26368;Q15637 147-475;1-260, |); experiment: EMSA
[2] = molecular target: U2AF65 RRM123;SF1 2-320 delta-linker (Homo sapiens;Homo sapiens?, UniProt P26368;Q15637 147-475;2-320, |del75-90); experiment: EMSA
U2AF65 RRM123 = U2AF65 RRM123 (Homo sapiens, UniProt P26368 147-475); experiment: EMSA
[3] = molecular target: U2AF65 RRM123;SF1 2-320 delta-alpha1 (Homo sapiens;Homo sapiens?, UniProt P26368;Q15637 147-475;2-320, |del35-68); experiment: EMSA
U2AF65 RRM123;SF1 1-260 [4] = molecular target: T1, U2AF65 RRM123;SF1 1-260; experiment: SAXS

Measured: binding result

U2AF65 RRM123, sequence (P26368 147-475, one chain of several): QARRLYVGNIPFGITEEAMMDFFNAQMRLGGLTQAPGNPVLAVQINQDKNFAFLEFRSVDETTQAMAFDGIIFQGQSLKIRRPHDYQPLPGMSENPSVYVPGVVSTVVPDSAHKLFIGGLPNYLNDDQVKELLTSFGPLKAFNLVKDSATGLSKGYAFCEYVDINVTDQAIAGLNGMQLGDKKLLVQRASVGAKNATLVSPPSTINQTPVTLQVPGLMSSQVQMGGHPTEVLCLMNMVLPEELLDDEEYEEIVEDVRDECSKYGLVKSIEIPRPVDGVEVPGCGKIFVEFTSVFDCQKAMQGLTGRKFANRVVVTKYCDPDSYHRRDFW

GGUCAUACUAACCCUGUCCCUUUUUUUUCCACAGC (ssRNA) [3'-splice site RNA (AdML intron 1, consensus BPS)]
not listed: U2AF65 RRM123;SF1 1-260 [4]
binds: all other assays above

UAUACUAACAAUUUUUUUUU (ssRNA) [20-mer BPS-Py tract RNA]
binds: U2AF65 RRM123;SF1 1-260 [4]
